Reference: PMC5454382 (Nature Communications, 2017)
Substitutions are numbered along the chain they refer to. Names may count otherwise. Each block holds one binder with its values, some of them ahead of it.

Tests used:
His-tagged LDHA [1] = target: T1, His-tagged LDHA (human, UniProt P00338 1-332); experiment: pull-down; GST pull-down: GST-tagged protein on glutathione-sepharose resin incubated with His-tagged protein, 4 °C, 3 h; conditions: both partners purified
His-tagged LDHA [2] = target: T1, His-tagged LDHA; experiment: pull-down; recombinant proteins from E. coli (Supplementary Fig. 3d,e); which partner was immobilised is not given; conditions: both partners purified

binding result (His-tagged LDHA [1]): binds
B1: GST-tagged hCINAP (enzyme, human, UniProt Q9Y3D8 1-172, looked up)
chain: MLLPNILLTGTPGVGKTTLGKELASKSGLKYINVGDLAREEQLYDGYDEEYDCPILDEDRVVDELDNQMREGGVIVDYHGCDFFPERWFHIVFVLRTDTNVLYERLETRGYNEKKLTDNIQCEIFQVLYEEATASYKEEIVHQLPSNKPEELENNVDQILKWIEQWIKDHNS
notes: hCINAP (adenylate kinase 6, AK6), human cDNA, wild type; Vector pGEX4T1 is named in the plasmids section; also called GST-hCINAP; glutathione S-transferase-tagged hCINAP; source: E. coli BL21(DE3), purified

binding result (His-tagged LDHA [2]): binds
B2: GST-tagged hCINAP (H79G) (enzyme, human, UniProt Q9Y3D8 1-172, looked up)
chain: B1 chain with H79G
notes: hCINAP (adenylate kinase 6, AK6), human cDNA, H79G mutant with impaired adenylate kinase activity; also called H79G mutant hCINAP; source: E. coli BL21(DE3), purified
